The numbers were not newly measured in publication PMC3472557, which cites them from elsewhere.

For data set [1], the target named is ASPP2 (Homo sapiens) (UniProt Q13625). The experiment in a line: solid-phase ELISA.
The target is the same in data set [2]. The experiment in a line: BIAcore SPR.

Chain of ASPP2 (Homo sapiens) (Q13625 whole entry): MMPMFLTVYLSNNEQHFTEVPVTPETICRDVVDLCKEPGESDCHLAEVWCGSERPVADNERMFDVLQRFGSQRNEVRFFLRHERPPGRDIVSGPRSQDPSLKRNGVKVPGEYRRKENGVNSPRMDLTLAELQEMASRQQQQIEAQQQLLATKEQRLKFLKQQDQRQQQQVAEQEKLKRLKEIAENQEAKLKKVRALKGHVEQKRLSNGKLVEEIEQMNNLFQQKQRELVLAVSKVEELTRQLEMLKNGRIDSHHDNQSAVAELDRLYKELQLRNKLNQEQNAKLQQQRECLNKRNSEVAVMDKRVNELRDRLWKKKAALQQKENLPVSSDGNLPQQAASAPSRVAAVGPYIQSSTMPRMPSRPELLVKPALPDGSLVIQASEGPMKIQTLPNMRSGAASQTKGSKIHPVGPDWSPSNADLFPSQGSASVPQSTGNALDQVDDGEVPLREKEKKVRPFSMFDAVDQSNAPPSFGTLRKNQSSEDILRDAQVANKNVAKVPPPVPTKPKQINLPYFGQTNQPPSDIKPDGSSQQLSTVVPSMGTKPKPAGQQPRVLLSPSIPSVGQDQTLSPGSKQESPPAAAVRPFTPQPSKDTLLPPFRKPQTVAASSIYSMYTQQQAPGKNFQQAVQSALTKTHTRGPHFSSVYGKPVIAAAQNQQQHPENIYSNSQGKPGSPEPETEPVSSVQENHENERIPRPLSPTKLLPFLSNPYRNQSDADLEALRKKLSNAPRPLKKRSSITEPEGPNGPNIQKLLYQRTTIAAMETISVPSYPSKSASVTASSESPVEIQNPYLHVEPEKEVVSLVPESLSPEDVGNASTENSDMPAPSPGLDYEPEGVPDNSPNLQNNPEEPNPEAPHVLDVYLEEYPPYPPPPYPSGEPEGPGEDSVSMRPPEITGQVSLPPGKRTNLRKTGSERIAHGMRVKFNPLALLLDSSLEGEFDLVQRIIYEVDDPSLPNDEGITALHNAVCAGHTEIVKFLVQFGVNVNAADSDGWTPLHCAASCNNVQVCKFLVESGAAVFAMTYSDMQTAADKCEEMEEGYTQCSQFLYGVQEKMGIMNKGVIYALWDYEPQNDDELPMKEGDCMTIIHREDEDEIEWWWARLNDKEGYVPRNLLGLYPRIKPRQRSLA

p53 (from UniProt P04637): the Kd with ASPP2 (Homo sapiens) [1] was 23 nM; in the data set with ASPP2 (Homo sapiens) [2] it was 30 nM.

As usually defined, the Kd is the constant that tells how readily two partners part at equilibrium.
